Test results published in patent publication US20240002547A1, “T[…]-TARGETING CONSTRUCTS AND USES THEREOF” (AEBI LTD., priority 2016, published 2024).

Biological target: human EGFR on A431 and MCF-7 cells (human), P00533
Assay: cell-based or functional assay

- IC50 of inhibition of EGFR autophosphorylation in A431 cells: 2000 nM
- Normalized Percent of EGFR autophosphorylation inhibition: 99.4%
Binder: CHPGDKQEDPNCLQADK (modifications not checked) [E13.3]
